The record followed here is patent US20160272683A1 (Novo Nordisk, published 2016).

For experiment [1], the target named is T1, human amylin 3(a) receptor (human calcitonin receptor co-expressed with RAMP-3) on BHK570/CRE-luc cells (human, UniProt P30988 25-474; O60896 24-148).
T1 sequence (looked up) 1: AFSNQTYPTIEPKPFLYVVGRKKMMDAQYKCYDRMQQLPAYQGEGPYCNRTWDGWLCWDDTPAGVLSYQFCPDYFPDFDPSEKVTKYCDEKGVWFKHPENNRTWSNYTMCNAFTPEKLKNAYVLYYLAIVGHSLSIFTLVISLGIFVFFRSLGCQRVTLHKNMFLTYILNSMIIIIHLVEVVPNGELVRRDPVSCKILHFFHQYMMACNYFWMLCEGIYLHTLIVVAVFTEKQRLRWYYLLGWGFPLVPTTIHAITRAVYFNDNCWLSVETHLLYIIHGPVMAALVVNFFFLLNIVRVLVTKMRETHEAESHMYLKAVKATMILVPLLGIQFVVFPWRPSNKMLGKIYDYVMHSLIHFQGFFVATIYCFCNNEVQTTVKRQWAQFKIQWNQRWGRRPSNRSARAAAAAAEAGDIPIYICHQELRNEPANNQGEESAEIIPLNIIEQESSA
T1 sequence (looked up) 2: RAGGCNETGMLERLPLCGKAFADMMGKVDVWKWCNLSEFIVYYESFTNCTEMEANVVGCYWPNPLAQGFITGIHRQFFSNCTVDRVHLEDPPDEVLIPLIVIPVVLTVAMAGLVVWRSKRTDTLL
Briefly: cell-based or functional assay.

Experiment [2] deals with T2, human calcitonin receptor on BHK570/CRE-luc cells (human, UniProt P30988 25-474).
T2 sequence (looked up): T1 sequence (looked up) 1
The experiment is described as follows: cell-based or functional assay.

Numbered stars: 1 amine (or outer) side, 2 acyl side, 3 side chain; on linkers, the order of the positions; unused ones are H or OH. * marks the point of attachment. C20 diacid = O=C(O)CCCCCCCCCCCCCCCCCCC(=O)*; γGlu = O=C(O)[C@H](CCC(=O)[*:2])N[*:1]

B1: [N-terminal(C20 diacid-gGlu), des1, 4Q, 9V, 15Q, 21Q, 23Y, 30S, 31Q, 32T, 33Y]mimylin (peptide)
peptide: {C20 diacid-γGlu}-ASQLSTAVLGRLSQELHELQTYPRTETGSQTY-NH2
SMILES: CC(C)C[C@H](NC(=O)[C@H](CCCNC(=N)N)NC(=O)CNC(=O)[C@H](CC(C)C)NC(=O)[C@@H](NC(=O)[C@H](C)NC(=O)[C@@H](NC(=O)[C@H](CO)NC(=O)[C@H](CC(C)C)NC(=O)[C@H](CCC(N)=O)NC(=O)[C@H](CO)NC(=O)[C@H](C)NC(=O)CC[C@H](NC(=O)CCCCCCCCCCCCCCCCCCC(=O)O)C(=O)O)[C@@H](C)O)C(C)C)C(=O)N[C@@H](CO)C(=O)N[C@@H](CCC(N)=O)C(=O)N[C@@H](CCC(=O)O)C(=O)N[C@@H](CC(C)C)C(=O)N[C@@H](Cc1c[nH]cn1)C(=O)N[C@@H](CCC(=O)O)C(=O)N[C@@H](CC(C)C)C(=O)N[C@@H](CCC(N)=O)C(=O)N[C@H](C(=O)N[C@@H](Cc1ccc(O)cc1)C(=O)N1CCC[C@H]1C(=O)N[C@@H](CCCNC(=N)N)C(=O)N[C@H](C(=O)N[C@@H](CCC(=O)O)C(=O)N[C@H](C(=O)NCC(=O)N[C@@H](CO)C(=O)N[C@@H](CCC(N)=O)C(=O)N[C@H](C(=O)N[C@@H](Cc1ccc(O)cc1)C(N)=O)[C@@H](C)O)[C@@H](C)O)[C@@H](C)O)[C@@H](C)O
For B1, the “hAmylin-R funct. EC50 (pM), tested with HSA” value (“hAmylin-R funct. EC50 (pM)” below) in experiment [1] was determined as 67 pM. In addition, the “hCTR funct. EC50 (pM), tested with HSA” value in experiment [2] turned out to be 36 pM.

B2: [N-terminal(C20 diacid-gGlu), des1, 4G, 15Q, 21Q, 23Y, 25H, 30S, 31G, 32T, 33Y]mimylin (peptide)
peptide: {C20 diacid-γGlu}-ASGLSTAALGRLSQELHELQTYPHTETGSGTY-NH2
SMILES: CC(C)C[C@H](NC(=O)CNC(=O)[C@H](CO)NC(=O)[C@H](C)NC(=O)CC[C@H](NC(=O)CCCCCCCCCCCCCCCCCCC(=O)O)C(=O)O)C(=O)N[C@@H](CO)C(=O)N[C@H](C(=O)N[C@@H](C)C(=O)N[C@@H](C)C(=O)N[C@@H](CC(C)C)C(=O)NCC(=O)N[C@@H](CCCNC(=N)N)C(=O)N[C@@H](CC(C)C)C(=O)N[C@@H](CO)C(=O)N[C@@H](CCC(N)=O)C(=O)N[C@@H](CCC(=O)O)C(=O)N[C@@H](CC(C)C)C(=O)N[C@@H](Cc1c[nH]cn1)C(=O)N[C@@H](CCC(=O)O)C(=O)N[C@@H](CC(C)C)C(=O)N[C@@H](CCC(N)=O)C(=O)N[C@H](C(=O)N[C@@H](Cc1ccc(O)cc1)C(=O)N1CCC[C@H]1C(=O)N[C@@H](Cc1c[nH]cn1)C(=O)N[C@H](C(=O)N[C@@H](CCC(=O)O)C(=O)N[C@H](C(=O)NCC(=O)N[C@@H](CO)C(=O)NCC(=O)N[C@H](C(=O)N[C@@H](Cc1ccc(O)cc1)C(N)=O)[C@@H](C)O)[C@@H](C)O)[C@@H](C)O)[C@@H](C)O)[C@@H](C)O
Regarding B2, the “hAmylin-R funct. EC50 (pM)” value in experiment [1] came to 212 pM. The “hCTR funct. EC50 (pM), tested with HSA” value in experiment [2] is 99 pM.

B3: [N-terminal(C20 diacid-gGlu), 4Q, 9V, 15Q, 21Q, 23Y, 27G, 30S, 31G, 32T, 33Y]mimylin (peptide)
peptide: {C20 diacid-γGlu}-EASQLSTAVLGRLSQELHELQTYPRTGTGSGTY-NH2
SMILES: CC(C)C[C@H](NC(=O)[C@H](CCCNC(=N)N)NC(=O)CNC(=O)[C@H](CC(C)C)NC(=O)[C@@H](NC(=O)[C@H](C)NC(=O)[C@@H](NC(=O)[C@H](CO)NC(=O)[C@H](CC(C)C)NC(=O)[C@H](CCC(N)=O)NC(=O)[C@H](CO)NC(=O)[C@H](C)NC(=O)[C@H](CCC(=O)O)NC(=O)CC[C@H](NC(=O)CCCCCCCCCCCCCCCCCCC(=O)O)C(=O)O)[C@@H](C)O)C(C)C)C(=O)N[C@@H](CO)C(=O)N[C@@H](CCC(N)=O)C(=O)N[C@@H](CCC(=O)O)C(=O)N[C@@H](CC(C)C)C(=O)N[C@@H](Cc1c[nH]cn1)C(=O)N[C@@H](CCC(=O)O)C(=O)N[C@@H](CC(C)C)C(=O)N[C@@H](CCC(N)=O)C(=O)N[C@H](C(=O)N[C@@H](Cc1ccc(O)cc1)C(=O)N1CCC[C@H]1C(=O)N[C@@H](CCCNC(=N)N)C(=O)N[C@H](C(=O)NCC(=O)N[C@H](C(=O)NCC(=O)N[C@@H](CO)C(=O)NCC(=O)N[C@H](C(=O)N[C@@H](Cc1ccc(O)cc1)C(N)=O)[C@@H](C)O)[C@@H](C)O)[C@@H](C)O)[C@@H](C)O
Take B3: the “hAmylin-R funct. EC50 (pM)” value in experiment [1] turned out to be 546 pM. The “hCTR funct. EC50 (pM), tested with HSA” value in experiment [2] was found to be 366 pM.
